This experiment deals with SARS-CoV-2 ORF6 C3 + YP (SARS-CoV-2 | SARS-CoV). The experiment can be described thus: ITC. The settings on record: both partners purified.

We go through one molecule from article PMC9376891 (Nature Communications, 2022).

The term Kd denotes the concentration at which binding is half-saturated.

SARS-CoV-2 ORF6 C3 + YP (SARS-CoV-2 | SARS-CoV), sequence (P52948 157-213): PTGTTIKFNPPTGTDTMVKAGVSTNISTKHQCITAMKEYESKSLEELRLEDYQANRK

B1: Rae1(31-368)-Nup98(157-213) heterodimer (complex)
chain 1: DIEVTSSPDDSIGCLSFSPPTLPGNFLIAGSWANDVRCWEVQDSGQTIPKAQQMHTGPVLDVCWSDDGSKVFTASCDKTAKMWDLSSNQAIQIAQHDAPVKTIHWIKAPNYSCVMTGSWDKTLKFWDTRSSNPMMVLQLPERCYCADVIYPMAVVATAERGLIVYQLENQPSEFRRIESPLKHQHRCVAIFKDKQNKPTGFALGSIEGRVAIHYINPPNPAKDNFTFKCHRSNGTNTSAPQDIYAVNGIAFHPVHGTLATVGSDGRFSFWDKDARTKLKTSEQLDQPISACCFNHNGNIFAYASSYDWSKGHEFYNPQKKNYIFLRNAAEELKPRNKK
chain 2: not shown
notes: also called Rae1-Nup98; Rae1-Nup98 complex
As to B1, the Kd stood at 200 nM.
